Holding throughout (assay): SPR; biotinylated SIRPα variants bound to streptavidin immobilised on a BIAcore CM5 chip, BIAcore 3000, 37°; dilutions of monomeric recombinant CD47 extracellular domain passed over; affinity from equilibrium binding
A general note: SPR reads the build-up and loss of mass on a sensor chip optically.

Test [1] addresses NOD mouse SIRPα, N-terminal domain (d1), wild type (mouse).
Test [2] concerns the target human SIRPα V2, three extracellular IgSF domains (3d) (human) (UniProt P78324).
Test [3] deals with NOD mouse SIRPα + SE mutant, N-terminal domain (d1) (mouse).
Test [4] deals with NOD mouse SIRPα + SE mutant, three extracellular IgSF domains (3d) (mouse).

human CD47 IgSF domain, monomeric recombinant extracellular domain, sequence (Q08722 19-136): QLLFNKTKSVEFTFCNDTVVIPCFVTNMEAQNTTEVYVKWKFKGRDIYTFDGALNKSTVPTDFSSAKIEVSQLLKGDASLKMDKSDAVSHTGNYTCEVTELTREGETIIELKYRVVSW
NOD mouse SIRPα, N-terminal domain (d1), wild type (mouse), sequence (P97797 1-148): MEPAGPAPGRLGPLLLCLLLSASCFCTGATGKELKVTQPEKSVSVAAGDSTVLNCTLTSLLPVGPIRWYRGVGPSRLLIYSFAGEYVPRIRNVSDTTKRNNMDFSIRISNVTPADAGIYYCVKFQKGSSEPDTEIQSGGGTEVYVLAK
mouse CD47 IgSF domain, monomeric recombinant extracellular domain, sequence (Q61735 19-139): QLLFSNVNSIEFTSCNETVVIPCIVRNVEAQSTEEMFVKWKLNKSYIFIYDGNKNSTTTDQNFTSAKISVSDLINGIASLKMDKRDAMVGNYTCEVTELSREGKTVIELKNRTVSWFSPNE

For “mouse CD47 IgSF domain, monomeric recombinant extracellular domain (from UniProt Q61735 19-139) (domain or fragment)”, the Kd (commonly the equilibrium constant for the complex coming apart) in test [1] was 4.7 µM; in test [2], more than 30 µM; in test [3], 11.8 µM; in test [4] it was 8.6 µM.

On to “human CD47 IgSF domain, monomeric recombinant extracellular domain (from UniProt Q08722-1 19-136) (domain or fragment)”, for which the Kd in test [1] worked out at 0.08 µM; in test [2], 0.6 µM; in test [3] it was 9.4 µM; in test [4], 7.6 µM.

The values above are taken from publication PMC4137956.
